Test [1] deals with human Fibronectin (R&D Systems 1918-FN) (human) (UniProt P02751). In words: AlphaLISA integrin-ligand binding, ligand at 1.0 nM. (Alpha assays give light when donor and acceptor beads are brought close together.)
The target of test [2] is human Vitronectin-GST tagged (EMD Millipore 08-126) (human) (UniProt P04004). Kind of test: AlphaLISA integrin-ligand binding, ligand at 10.0 nM.
For test [3] the target is unchanged. In words: AlphaLISA integrin-ligand binding, ligand at 1.0 nM.
Test [4] deals with human LAP (R&D system 246-LP) (human) (UniProt P01137). In words: AlphaLISA integrin-ligand binding, ligand at 0.5 nM.
Test [5] shares this target. Kind of test: AlphaLISA integrin-ligand binding, ligand at 3.0 nM.
The target of test [6] is mouse fibronectin (Abcam ab92784) (mouse) (UniProt P11276). Kind of test: AlphaLISA integrin-ligand binding, ligand at 2.5 nM.
Test [7] has the same target. In words: AlphaLISA integrin-ligand binding, ligand at 1.0 nM.
Test [8] concerns the target mouse Vitronectin (Abcam ab92727) (mouse) (UniProt P29788). In words: AlphaLISA integrin-ligand binding, ligand at 5.0 nM.
Test [9] shares this target. Kind of test: AlphaLISA integrin-ligand binding, ligand at 2.5 nM.
Test [10] concerns the target mouse LAP-6His (Chem partner) (mouse) (UniProt P04202). The test is described as above.

These results are taken from patent US20250313635A1, “ANTI-INTEGRIN ANTIBODIES AND USES THEREOF” (Merck Sharp & Dohme LLC, priority 2022, published 2025).

Chain of mouse Vitronectin (Abcam ab92727) (mouse) (P29788 20-478 limits assumed): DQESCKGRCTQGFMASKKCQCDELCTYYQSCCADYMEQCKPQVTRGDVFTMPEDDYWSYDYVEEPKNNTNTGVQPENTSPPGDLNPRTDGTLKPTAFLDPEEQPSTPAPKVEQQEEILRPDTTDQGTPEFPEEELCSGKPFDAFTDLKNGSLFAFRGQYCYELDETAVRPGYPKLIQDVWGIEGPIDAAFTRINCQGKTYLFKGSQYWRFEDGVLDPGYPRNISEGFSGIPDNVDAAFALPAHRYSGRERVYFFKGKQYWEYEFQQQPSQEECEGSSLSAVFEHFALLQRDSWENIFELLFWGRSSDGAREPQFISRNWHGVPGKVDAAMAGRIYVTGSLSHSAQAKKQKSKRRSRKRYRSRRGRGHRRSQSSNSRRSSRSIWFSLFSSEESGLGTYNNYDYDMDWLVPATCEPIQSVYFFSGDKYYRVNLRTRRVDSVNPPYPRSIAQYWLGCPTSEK
Chain of mouse LAP-6His (Chem partner) (mouse) (P04202 30-278 limits assumed): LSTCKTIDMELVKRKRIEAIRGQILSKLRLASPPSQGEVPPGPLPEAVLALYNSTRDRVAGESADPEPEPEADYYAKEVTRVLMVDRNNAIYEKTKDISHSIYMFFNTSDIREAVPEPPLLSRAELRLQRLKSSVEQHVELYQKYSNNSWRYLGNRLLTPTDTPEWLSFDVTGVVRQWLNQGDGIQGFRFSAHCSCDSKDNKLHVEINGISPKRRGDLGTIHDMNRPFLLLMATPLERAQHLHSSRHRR
Chain of human Fibronectin (R&D Systems 1918-FN) (human) (P02751 other isoform, or with tags, fused parts or gaps limits assumed): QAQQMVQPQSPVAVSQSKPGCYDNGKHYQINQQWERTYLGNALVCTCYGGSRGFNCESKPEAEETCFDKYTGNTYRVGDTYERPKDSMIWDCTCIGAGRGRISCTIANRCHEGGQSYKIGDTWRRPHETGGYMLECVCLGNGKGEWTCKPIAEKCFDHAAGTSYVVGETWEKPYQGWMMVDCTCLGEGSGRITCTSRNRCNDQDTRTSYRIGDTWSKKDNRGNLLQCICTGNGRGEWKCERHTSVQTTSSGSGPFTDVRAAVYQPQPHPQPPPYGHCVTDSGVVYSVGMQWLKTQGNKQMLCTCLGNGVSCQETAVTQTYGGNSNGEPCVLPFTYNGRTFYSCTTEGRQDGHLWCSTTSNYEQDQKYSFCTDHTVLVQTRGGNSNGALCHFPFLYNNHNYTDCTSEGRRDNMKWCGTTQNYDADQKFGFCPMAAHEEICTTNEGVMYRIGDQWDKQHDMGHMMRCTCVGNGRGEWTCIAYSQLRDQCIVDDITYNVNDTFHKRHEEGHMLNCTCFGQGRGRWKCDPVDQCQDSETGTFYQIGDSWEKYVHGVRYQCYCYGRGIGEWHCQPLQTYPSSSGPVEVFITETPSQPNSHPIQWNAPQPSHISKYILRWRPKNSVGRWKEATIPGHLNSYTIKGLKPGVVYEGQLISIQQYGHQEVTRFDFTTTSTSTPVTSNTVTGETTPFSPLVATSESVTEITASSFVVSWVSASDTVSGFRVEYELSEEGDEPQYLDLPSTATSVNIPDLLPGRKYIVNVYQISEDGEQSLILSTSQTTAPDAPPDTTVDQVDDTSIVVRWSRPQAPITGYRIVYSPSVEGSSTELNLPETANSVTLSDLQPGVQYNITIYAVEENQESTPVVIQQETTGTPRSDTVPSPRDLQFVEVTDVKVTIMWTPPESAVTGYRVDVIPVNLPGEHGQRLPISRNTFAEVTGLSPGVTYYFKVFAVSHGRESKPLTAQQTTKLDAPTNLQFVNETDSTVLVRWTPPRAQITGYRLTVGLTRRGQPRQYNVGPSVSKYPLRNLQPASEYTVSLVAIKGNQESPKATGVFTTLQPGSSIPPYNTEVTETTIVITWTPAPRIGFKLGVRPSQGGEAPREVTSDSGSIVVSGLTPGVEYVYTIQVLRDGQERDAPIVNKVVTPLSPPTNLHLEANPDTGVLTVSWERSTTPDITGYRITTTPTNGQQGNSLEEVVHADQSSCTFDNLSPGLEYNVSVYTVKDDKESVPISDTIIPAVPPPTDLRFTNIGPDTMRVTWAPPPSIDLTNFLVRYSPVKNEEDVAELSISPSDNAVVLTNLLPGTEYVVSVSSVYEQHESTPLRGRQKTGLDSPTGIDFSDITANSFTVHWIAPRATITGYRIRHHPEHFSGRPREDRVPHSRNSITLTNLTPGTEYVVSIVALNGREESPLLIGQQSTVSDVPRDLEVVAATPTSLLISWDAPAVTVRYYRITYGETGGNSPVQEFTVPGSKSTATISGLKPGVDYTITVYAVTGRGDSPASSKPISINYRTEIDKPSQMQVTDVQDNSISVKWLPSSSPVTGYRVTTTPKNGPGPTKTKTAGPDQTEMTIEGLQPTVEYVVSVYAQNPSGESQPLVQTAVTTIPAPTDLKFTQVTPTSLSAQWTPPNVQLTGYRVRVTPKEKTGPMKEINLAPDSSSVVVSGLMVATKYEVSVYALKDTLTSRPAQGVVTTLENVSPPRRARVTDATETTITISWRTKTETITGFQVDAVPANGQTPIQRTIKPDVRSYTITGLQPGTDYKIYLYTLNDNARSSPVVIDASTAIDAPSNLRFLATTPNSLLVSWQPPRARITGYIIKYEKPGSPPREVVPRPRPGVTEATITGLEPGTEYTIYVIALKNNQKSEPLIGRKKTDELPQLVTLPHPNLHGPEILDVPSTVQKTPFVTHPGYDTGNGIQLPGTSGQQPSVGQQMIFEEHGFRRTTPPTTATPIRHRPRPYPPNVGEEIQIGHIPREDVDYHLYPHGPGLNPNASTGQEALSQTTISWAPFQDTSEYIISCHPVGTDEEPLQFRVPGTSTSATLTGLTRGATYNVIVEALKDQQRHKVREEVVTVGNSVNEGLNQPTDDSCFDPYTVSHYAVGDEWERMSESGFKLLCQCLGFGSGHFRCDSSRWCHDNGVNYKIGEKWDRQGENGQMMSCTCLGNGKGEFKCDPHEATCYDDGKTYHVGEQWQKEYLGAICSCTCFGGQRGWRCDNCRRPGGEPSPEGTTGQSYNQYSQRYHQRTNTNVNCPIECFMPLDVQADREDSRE

For “recombinant human αvβ1 integrin extracellular domains (from UniProt P06756 1-992; P05556 1-728) (receptor)”, the Integrin EC80 (batch dependent) in [1] stood at 1.4 nM.
The substance “recombinant human αvβ3 integrin extracellular domains (from UniProt P06756 1-992; P05106 1-718) (receptor)” had an Integrin EC80 (batch dependent) in test [2] of 3 nM.
In test [3], “recombinant human αvβ5 integrin extracellular domains (from UniProt P06756 1-992; P18084 1-719) (receptor)” had an Integrin EC80 (batch dependent) of 2.5 nM.
“recombinant human αvβ6 integrin extracellular domains (from UniProt P06756 1-992; P18564 1-709) (receptor)” came in with an Integrin EC80 (batch dependent) in test [4] of 0.1 nM.
In test [5], “recombinant human αvβ8 integrin extracellular domains (from UniProt P06756 1-992; P26012 1-684) (receptor)” showed an Integrin EC80 (batch dependent) of 1 nM.
Substance “recombinant mouse α5β1 integrin extracellular domains (from UniProt P11688 1-999; P09055 1-728) (receptor)” came in with an Integrin EC80 (batch dependent) in test [6] of 1 nM.
With “recombinant mouse αvβ1 integrin extracellular domains (from UniProt P43406 1-988; P09055 1-728) (receptor)”, the Integrin EC80 (batch dependent) in test [7] worked out at 4.3 nM.
As for “recombinant mouse αvβ3 integrin extracellular domains (from UniProt P43406 1-988; O54890 1-717) (receptor)”, the Integrin EC80 (batch dependent) in test [8] amounted to 3 nM.
“recombinant mouse αvβ5 integrin extracellular domains (from UniProt P43406 1-988; O70309 1-719) (receptor)” gave an Integrin EC80 (batch dependent) in test [9] of 0.6 nM.
On to “recombinant mouse αvβ6 integrin extracellular domains (from UniProt P43406 1-988; Q9Z0T9 1-706) (receptor)”, for which the Integrin EC80 (batch dependent) in test [10] came out at 1.4 nM.
Still for that read-out and setting: with “recombinant mouse αvβ8 integrin extracellular domains (from UniProt P43406 1-988; Q0VBD0 1-679) (receptor)” the figure was 1 nM.
